Test results as given in article PMC2440601.

B1: ALDH1 (cytosolic aldehyde dehydrogenase, ALDH1A1) (Homo sapiens) (protein)
chain: SSSGTPDLPVLLTDLKIQYTKIFINNEWHDSVSGKKFPVFNPATEEELCQVEEGDKEDVDKAVKAARQAFQIGSPWRTMDASERGRLLYKLADLIERDRLLLATMESMNGGKLYSNAYLNDLAGCIKTLRYCAGWADKIQGRTIPIDGNFFTYTRHEPIGVCGQIIPWNFPLVMLIWKIGPALSCGNTVVVKPAEQTPLTALHVASLIKEAGFPPGVVNIVPGYGPTAGAAISSHMDIDKVAFTGSTEVGKLIKEAAGKSNLKRVTLELGGKSPCIVLADADLDNAVEFAHHGVFYHQGQCCIAASRIFVEESIYDEFVRRSVERAKKYILGNPLTPGVTQGPQIDKEQYDKILDLIESGKKEGAKLECGGGPWGNKGYFVQPTVFSNVTDEMRIAKEEIFGPVQQIMKFKSLDDVIKRANNTFYGLSAGVFTKDIDKAITISSALQAGTVWVNCYGVVSAQCPFGGFKMSGNGRELGEYGFHEYTEVKTVTVKISQKNS
B2: ALDH2 (mitochondrial aldehyde dehydrogenase) (Homo sapiens) (protein)
chain: SAAATQAVPAPNQQPEVFCNQIFINNEWHDAVSRKTFPTVNPSTGEVICQVAEGDKEDVDKAVKAARAAFQLGSPWRRMDASHRGRLLNRLADLIERDRTYLAALETLDNGKPYVISYLVDLDMVLKCLRYYAGWADKYHGKTIPIDGDFFSYTRHEPVGVCGQIIPWNFPLLMQAWKLGPALATGNVVVMKVAEQTPLTALYVANLIKEAGFPPGVVNIVPGFGPTAGAAIASHEDVDKVAFTGSTEIGRVIQVAAGSSNLKRVTLELGGKSPNIIMSDADMDWAVEQAHFALFFNQGQCCCAGSRTFVQEDIYDEFVERSVARAKSRVVGNPFDSKTEQGPQVDETQFKKILGYINTGKQEGAKLLCGGGIAADRGYFIQPTVFGDVQDGMTIAKEEIFGPVMQILKFKTIEEVVGRANNSTYGLAAAVFTKDLDKANYLSQALQAGTVWVNCYDVFGAQSPFGGYKMSGSGRELGEYGLQAYTEVKTVTVKVPQKNS

Assays:
purified protein [1] = substrate: CC(=O)Oc1ccc([N+](=O)[O-])cc1; assay: purified protein
purified protein [2] = substrate: CC=O; assay: purified protein; format: biochemical, Homo sapiens; details: NAD+

Protein | Km (purified protein [1]) [µM] | Vmax (purified protein [1]) [µmol/min/mg] | Km (purified protein [2]) [µM] | Vmax (purified protein [2]) [µmol/min/mg]
B1 | 0.69 ± 0.03 | 0.155 | 200 ± 14 | 1.06 ± 0.02
B2 | 0.18 ± 0.01 | 0.21 | 0.33 ± 0.005 | 4 ± 0.03
